Experimental data from the supplement of paper PMC10126150.
± gives the standard deviation of the averaged measurements.

System: ATP
Experiment: switch fluorescence ratio, 500 uM ATP over buffer (Cy3 cluster intensity, sum of 5 cycles each) (fold (ratio)); higher = stronger signal-on switching upon ATP binding; sequences stand for … in TCGTCGGCAGCGTCAGATGTGTATAAGAGACAGTTTTTTTTTTTTTTTTTTTTTTTTT…TC
Conditions: aptamer strand: ATP DNA aptamer (quencher-CACCTGGGGGAGTATTGCGGAGGAAGG + anchor), 100 nM annealed; ATP concentration: 500 uM
Procedure, shortened: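 Imaging in selection buffer was followed by imaging after 15 min with 500 uM ATP at 22 °C, for Cy3-labelled switching-strand clusters annealed to 100 nM quencher-labelled ATP aptamer on a modified Illumina MiSeq flow-cell. Five of these buffer/ATP cycles ran, separated by NaOH stripping and re-annealing. The fluorescence ratio per cluster is summed target-cycle over summed buffer-cycle Cy3 intensity, averaged per switch-domain sequence; clusters outside 100-1000 RFU were removed.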
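Further: ATP exposure 15 min at 22 °C before imaging.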

Row | Sequence | switch fluorescence ratio
1 | TCGTTTCGGG | 0.985 ± 0.017
2 | GCTAATTGTG | 0.975 ± 0.0036
3 | AGTCATTTTA | 0.999 ± 0.028
4 | CGGTTAGACG | 0.977 ± 0.008
5 | TATGGGGGGA | 1.02 ± 0.046
6 | CGCTGGTTGT | 0.9855 ± 0.0013
7 | TTCTGGATCC | 1.02 ± 0.043
8 | GGTTGACGAG | 0.986 ± 0.012
9 | GAAGAAGGTG | 1.43 ± 0.018
10 | CAATGGTTAG | 0.998 ± 0.026
11 | AAGAGAGGTG | 1.07 ± 0.014
12 | AGGAGGAGGC | 0.789 ± 0.23
13 | GTTATATGGT | 1.02 ± 0.021
14 | TTATTGGGGA | 0.974 ± 0.024
15 | CCTGGTACGT | 1.01 ± 0.034
16 | TAGATTGTCT | 1.01 ± 0.03
17 | ACTTTTCTCG | 1.01 ± 0.011
18 | CTGGCATTAT | 1.21 ± 0.038
19 | ATCGCTTAAT | 1.03 ± 0.049
20 | TTCTAGGGGT | 0.966 ± 0.012
21 | AGGTCATTGA | 1 ± 0.021
22 | AGTTTGGGGG | 0.966 ± 0.029
23 | AAAAGGTTAG | 1.0185 ± 0.00083
24 | TAATTTGGCT | 1.01 ± 0.035
25 | CGGGTGTTTT | 1.055 ± 0.0089

Row | Sequence | switch fluorescence ratio
26 | TTAGTTTTGA | 1 ± 0.031
27 | GCACGGCGTA | 1.04 ± 0.038
28 | TATTTGGATA | 1.05 ± 0.1
29 | ACACGGTGAT | 1.056 ± 0.0056
30 | TAAGTGGAAG | 1.01 ± 0.029
31 | CTAAAAGGGG | 1.02 ± 0.021
32 | AGAGCGTTAG | 1.02 ± 0.051
33 | TTAATTTTTT | 0.995 ± 0.037
34 | CCGAGTTAAG | 1.08 ± 0.012
35 | AGTAAGATTT | 1.16 ± 0.15
36 | TTAGGGTGCC | 1.02 ± 0.034
37 | GCAAGAGATG | 1.01 ± 0.027
38 | TTTGATCGCT | 1.28 ± 0.46
39 | TCGTTTTATT | 0.9925 ± 0.0076
40 | CAAACATTTT | 0.9795 ± 0.0044
41 | GCTATGGTGG | 0.987 ± 0.021
42 | GGCGGAACGT | 1 ± 0.023
43 | CGGGGGTGCA | 1 ± 0.0011
44 | TTTGAGAGGT | 1.05 ± 0.03
45 | TTGCTATGTG | 0.979 ± 0.015
46 | TTCATCGGTT | 0.9922 ± 0.0022
47 | ATTTTTAAAC | 0.992 ± 0.066
48 | ATTGATGGCG | 0.982 ± 0.06
49 | ATGAGTCATG | 1.01 ± 0.028
50 | CCTTGAATGG | 1.05 ± 0.005

Row | Sequence | switch fluorescence ratio
51 | GTGCAACTAC | 2.93 ± 0.32
52 | ATGGGCTGGA | 1.04 ± 0.015
53 | GTCGGGGAGG | 1.04 ± 0.031
54 | TTTCAGTTTT | 1.1 ± 0.22
55 | ACTGTCCCGT | 1.019 ± 0.0029
56 | AGATTTATCG | 0.9781 ± 0.0027
57 | CGGTATAAGG | 0.982 ± 0.046
58 | GGTCAATTAT | 1.05 ± 0.068
59 | AACCTGGGCC | 1.19 ± 0.099
60 | GCTGGAAAGG | 1.01 ± 0.079
61 | CCTGCATTTG | 1.0933 ± 0.00019
62 | TTGATAGGGG | 1.01 ± 0.031
63 | GGTACTA | 1.02 ± 0.0021
64 | GTTTACGTGG | 1.01 ± 0.015
65 | AAGTTATGTT | 1.02 ± 0.028
66 | GGCGAAAATA | 1.007 ± 0.0079
67 | TTCGGAGGAG | 1 ± 0.012
68 | GGCACTTCCA | 1.03 ± 0.028
69 | AAGGGCCTGC | 0.9723 ± 0.0039
70 | TAGGGCATCA | 0.987 ± 0.042
71 | ACTGTTAGTG | 1.02 ± 0.034
72 | AGAGCGGTTG | 0.969 ± 0.037
73 | ATTAAGTTGA | 0.987 ± 0.041
74 | AATGTTTTGG | 0.9952 ± 0.0081
75 | CGGGCTTGTG | 1 ± 0.011

Row | Sequence | switch fluorescence ratio
76 | GGCGCAGTTC | 1.37 ± 0.077
77 | GGCTGAGGGA | 1.04 ± 0.037
78 | TTTTTTGCGT | 0.987 ± 0.047
79 | ATTTGGTATC | 0.997 ± 0.017
80 | ACAGGCGTCA | 1.02 ± 0.024
81 | GCAAGGGTGT | 1.153 ± 0.0013
82 | CTTGGTGGGG | 0.969 ± 0.031
83 | TTGAGGGAAT | 0.992 ± 0.033
84 | CGGAGTGTGC | 1.23 ± 0.047
85 | GTTATCATTA | 1.02 ± 0.03
86 | GGGTGGGTAG | 0.955 ± 0.037
87 | ATCGTGGATT | 0.969 ± 0.019
88 | CCGAGAGGGC | 1.15 ± 0.092
89 | TCGCGTTGTG | 1.02 ± 0.034
90 | GGTTCAAGGT | 0.994 ± 0.027
91 | GCAGGAAATT | 0.973 ± 0.014
92 | TGTTTTTAGA | 1.01 ± 0.019
93 | GCTTACTCAT | 1.09 ± 0.043
94 | TTAGTTTTAG | 1.008 ± 0.0056
95 | GAGAAAGCCC | 1 ± 0.015
96 | TGAAGGAGTG | 0.955 ± 0.038
97 | TCATGCATGT | 1.035 ± 0.01
98 | TCACTTATAA | 1.02 ± 0.018
99 | TTTGGGAGGC | 1.01 ± 0.034
100 | GAGCTTTTTT | 0.9986 ± 0.0034

Row | Sequence | switch fluorescence ratio
101 | ACTAGAGGTT | 1.06 ± 0.039
102 | TTTGTGCTTT | 1.01 ± 0.02
103 | TCGTGTCGG | 0.98 ± 0.021
104 | TAGGGTCGG | 1 ± 0.053
105 | TAGTTGGGGA | 1.03 ± 0.033
106 | TTTATTCGAA | 0.99821 ± 0.00092
107 | GGGTTCCTGG | 0.995 ± 0.028
108 | AAGTTTAGTG | 0.976 ± 0.019
109 | TTAGTAGAAC | 0.993 ± 0.013
110 | TGGGTAGTTT | 1 ± 0.015
111 | TTACGGCCCG | 1.05 ± 0.051
112 | TCATTGGGTT | 0.977 ± 0.026
113 | TTTTTTTGGT | 0.996 ± 0.028
114 | CGCCTGGCTT | 1 ± 0.013
115 | TTTTTTATTC | 1.15 ± 0.29
116 | CCAATTTGGG | 0.964 ± 0.029
117 | ATGGCCTTAG | 0.9931 ± 0.0094
118 | GCACCGAAAA | 1.29 ± 0.4
119 | CTCGTGAGTT | 1.02 ± 0.021
120 | CGTAAATATA | 1.03 ± 0.015
121 | TTCGGGGTTC | 1.0029 ± 0.00079
122 | GTCCGAAGGC | 0.988 ± 0.014
123 | GGCGAAAAGG | 0.993 ± 0.047
124 | ATTCGTATTT | 0.987 ± 0.029
125 | TGAGGCCTAG | 1.02 ± 0.056

Row | Sequence | switch fluorescence ratio
126 | AGTAGCATTC | 1.724 ± 0.013
127 | TTGGTTGTTT | 1 ± 0.052
128 | TACTGAAGGG | 1.02 ± 0.031
129 | AAGTTTGAAG | 0.974 ± 0.01
130 | CTGATTGAGT | 0.9763 ± 0.0063
131 | AGGCTCCTCG | 1.039 ± 4.4e-05
132 | TAACAATTCC | 1.26 ± 0.013
133 | TTCGTCAGTG | 0.986 ± 0.013
134 | ATGGATTTAT | 0.992 ± 0.037
135 | ACGGGGAGTC | 1.039 ± 0.0052
136 | ATAGGTGAGA | 1.06 ± 0.02
137 | TTTGTTTGGT | 0.985 ± 0.036
138 | TATAACTATT | 0.999 ± 0.042
139 | GGGTTAGGTG | 1.14 ± 0.065
140 | TACAGAACGC | 1.24 ± 0.24
141 | GCGTTTGCGC | 1.03 ± 0.016
142 | AGGTGCATTT | 1.08 ± 0.02
143 | AGGGCTAAGG | 0.9995 ± 0.0034
144 | TTTATGGTTC | 0.992 ± 0.01
145 | ATAATGGCTT | 0.988 ± 0.025
146 | TTAAGTTGAG | 0.983 ± 0.021
147 | TGCAGATTTA | 1.01 ± 0.014
148 | CGTTTGTCGG | 1.01 ± 0.059
149 | TTATAGTATC | 0.948 ± 0.02
150 | CAGATAGCAG | 1.093 ± 0.0021

Row | Sequence | switch fluorescence ratio
151 | CTATACGGTT | 0.983 ± 0.03
152 | CCAGTGAATA | 1.06 ± 0.021
153 | ACGCGATTTT | 1.35 ± 0.46
154 | AACTGCAAGT | 0.993 ± 0.027
155 | GGGGATGTTT | 0.958 ± 0.039
156 | TTACGGTATG | 1.09 ± 0.035
157 | TTTCATTTCT | 1 ± 0.018
158 | CGCGGGGGGT | 0.992 ± 0.018
159 | TGGGATCTGG | 0.997 ± 0.037
160 | GGTAAAAGTT | 1.01 ± 0.022
161 | GTTGTAGTTG | 0.98387 ± 0.00037
162 | ATTGGGATGC | 1.04 ± 0.02
163 | GGACACGATT | 0.986 ± 0.051
164 | CCTTGCCGGT | 1.022 ± 0.0094
165 | ATATCGGTAG | 0.999 ± 0.014
166 | GCATGAAACT | 1.03 ± 0.034
167 | TCTGGGGAAT | 1 ± 0.035
168 | AAATGCAGCT | 0.977 ± 0.016
169 | AGCATGGTTT | 1.02 ± 0.029
170 | AGTGCGGGCG | 0.9895 ± 0.003
171 | GACTTACGTT | 1.22 ± 0.17
172 | GGGACCTTTG | 0.994 ± 0.01
173 | TACGGGTAGC | 1.04 ± 0.02
174 | CCGAAGGATT | 1.022 ± 0.0044
175 | TTTGGGGGCC | 1.009 ± 0.0061

Row | Sequence | switch fluorescence ratio
176 | TCGCGGTTAT | 1.06 ± 0.029
177 | TCAGAAGGGT | 0.994 ± 0.03
178 | GGCTTAATAG | 1.01 ± 0.033
179 | AGGTTGTATG | 0.97 ± 0.039
180 | CGTTTTTATT | 1.01 ± 0.015
181 | TATAAGAAAA | 0.978 ± 0.013
182 | GGGCAATCTT | 1.119 ± 0.0083
183 | TACCAGTGCT | 1.075 ± 0.0019
184 | ATGTTTCTAT | 0.982 ± 0.027
185 | GCGGTGGTTT | 0.998 ± 0.017
186 | TTAGTTAGGT | 1.004 ± 0.0046
187 | ATCTAGTAGT | 1.01 ± 0.013
188 | GTGAGTATCG | 0.968 ± 0.0098
189 | TTTATCAGTG | 0.987 ± 0.031
190 | CTGTTTTGGT | 1.008 ± 0.0028
191 | GGACGGTCGG | 1.01 ± 0.052
192 | CAAGATCGGC | 1.01 ± 0.079
193 | GTGGCCATTA | 0.995 ± 0.02
194 | CGTTAGTGTA | 0.99 ± 0.023
195 | TGGTTTTGGA | 0.976 ± 0.056
196 | CGGGCAGATG | 0.983 ± 0.028
197 | TAAGGTATGA | 1.002 ± 0.0076
198 | AAAGGTGATG | 0.978 ± 0.04
199 | GTTAACAGTT | 0.989 ± 0.027
200 | TTTGCTTTTT | 1 ± 0.036
